Data as given in patent US20200270345A1 (JOINT STOCK COMPANY BIOCAD, published 2020).
Residue numbers refer to the chain shown, from its start.

B1: BCD106-02_L.Alecto.VHHSel2_MP1_G7_53 (VHH)
VHH: QVKLEESGGGLVQPGGSLTLSCAASGIISSINAMNWYRQAPGKRREWVAQITGEGITNCRDSWKGRFSITSDSANNTMYLQMNNLKPDDTDVYYCNAFVIHTTSEIYWGLGTTVTVSS
notes: Llama anti-CD47 VHH tested as E. coli culture supernatant; not shown: myc and His6 tags at the C-terminus of the VHH (pET-22)
B2: BCD106-02_L.Alecto.VHHSel2_MP1_G5_37 (VHH)
VHH: AVQLVDSGGGLVQPGGSLRLSCAASRSIFSINAMNWYRQAPGNRREWVAQITDEGITNYVDSVKGRFTITRDNAKNTMYLQMNSLKPEDTAVYYCNAFVITTTSEIYWGQGTTVTVSS
notes: as for B1
B3: BCD106-02_L.Alecto.VHHSel2_MP1_C7_49 (VHH)
VHH: B2 VHH with A40P
notes: as for B1
B4: BCD106-02_L.Alecto.VHHSel2_MP1_F10_76 (VHH)
VHH: B2 VHH with A1D, D6E, S27N, N43K, D53S, T102A, T103S, I106V
notes: as for B1
B5: BCD106-02_L.Alecto.VHHSel2_MP1_H10_78 (VHH)
VHH: QVKLEESGGGLVQPGGSLRLSCAASRSISSINAMNWYRQAPGKRREWVAQITGEGITNYRDSVKGRFTITSDNAKNTMYLQMNSLKPEDTAVYYCNAFVIHTTSEVYWGQGTLVTVSS
notes: as for B1
B6: BCD106-02_L.Alecto.VHHSel2_MP1_B9_64 (VHH)
VHH: DVQLVESGGGLVQPGGSLTLSCAASRNIFRINAMNWYRQAPGKRREWVAPITSEGITNYVDSVKGRFTITRDNAKNTMYLQMNSLKPEDTAVYYCNACLITASSEVYWGQGTLVTVSS
notes: as for B1

These molecules were tested against CD47 proprietary (human, UniProt Q08722 19-134, limits assumed) (assay: ELISA on CD47 proprietary, 450 nm).
Chain of CD47 proprietary (Q08722 19-134 limits assumed): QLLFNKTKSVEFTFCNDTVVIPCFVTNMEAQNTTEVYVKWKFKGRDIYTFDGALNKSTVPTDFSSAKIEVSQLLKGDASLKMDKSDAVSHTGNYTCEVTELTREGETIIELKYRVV

| Molecule | OD units, binding on CD47 proprietary [OD units] |
| --- | --- |
| B1 | 0.498 |
| B2 | 0.426 |
| B3 | 0.379 |
| B4 | 0.312 |
| B5 | 0.448 |
| B6 | 0.24 |

Each molecule was assayed against T1, human CD47-Fc (human, UniProt Q08722 19-134) (assay: competitive ELISA, competitor SIRP-Fc; lower OD means more blocking).
T1 construct: Leu19-Val134 is the natural numbering printed; also called human CD47-Fc receptor; human CD47-Fc (Biocad); not shown: Fc tag of the expression plasmid
T1 sequence (Q08722 19-134): as the sequence (Q08722 19-134 limits assumed) above

| Molecule | OD units, competitive screening to SIRP-Fc [OD units] |
| --- | --- |
| B1 | 0.088 |
| B2 | 0.143 |
| B3 | 0.14 |
| B4 | 0.114 |
| B5 | 0.095 |
| B6 | 0.188 |

The molecules below were run against T1, human CD47-Fc (assay: ELISA, CD47-Fc coated, VHH in E. coli supernatant, anti-myc detection, 450 nm).
Experimental: ELISA was used to measure the binding of specific test antibody fragments of Example 4 to human CD47-Fc. ELISA well plates (Nunc ImmunoMaxisorp) were covered with 50 μl/well of human CD47-Fc (Biocad) (0.5 μg/ml in 1× coating carbonate buffer), sealed, and incubated overnight at 4° C. All further stages were performed in accordance with standard ELISA protocols with a high-performance automated platform based on robotic systems such as GenetixQ-pix2xt (Molecular Devices) and Tecan Freedom EVO 200 (Tecan). Non-specific binding was blocked by adding a blocking buffer BB (200 μl 0.5% fat-free milk in PBS). Plates were incubated on a shaker for 1 h at room temperature. After washing with PBS-Tween, each cell was coated with 100 μl of cell supernatant containing the test antibody fragment. The plates were incubated on a shaker for 1 hour at room temperature; further, each plate well was 5 times washed with PBS-Tween buffer. After washing, mouse anti-MYC IgG clone 9E10 (ThermoFisher Scientific) (50 μl/well) was added to PBS-Tween (1:5000). The plates were shaken in rotation shaker (50 min at room temperature) and then 5 times washed with PBS-Tween buffer as described above. After washing, anti-mouse IgG HRP conjugate (ThermoFisher Scientific) (50 μl/well) was added to PBS-Tween (1:10000). The plates were shaken in rotation shaker (50 min at room temperature) and then 5 times washed with PBS-Tween buffer as described above. Colorimetric signal was obtained by adding TMB (50 μl/well) until saturated (average of 10-12 min); further color development was blocked by adding a stop solution (25 μl/well, 1% sulfuric acid). Color signal was measured at 450 nm using a suitable Tecan-Sunrise plate reader (Tecan). Antibody binding was proportional to the signal produced.

| Molecule | OD units, initial screening for CD47-Fc [OD units] |
| --- | --- |
| B1 | 0.319 |
| B2 | 0.166 |
| B3 | 0.127 |
| B4 | 0.213 |
| B5 | 0.4 |
| B6 | 0.129 |

These molecules were tested against T1, human CD47-Fc (assay: BLI (Octet Red 96), CD47-Fc on ARG2 sensor, VHH in growth medium, 1:1 model).
Experimental: VHH antibody fragments were measured to provide an example of analysis of kinetic parameters of interaction of antibody fragments that specifically bind to CD47 receptor. Dissociation constant (kdis)-based comparative screening for VHH fragments was performed using Octet Red 96 and ARG2 amino-reactive biosensors (Pall-ForteBio). Affinity constants can be calculated based on the exact protein concentration in the test solution, and, since cell growth media were used as a protein solution and protein concentrations were not measured, the candidates were compared to each other by using the dissociation constant thereof. Biosensors were pre-rehydrated for an hour in water. After activating biosensors, CD47-Fc at a concentration of 10 μg/ml in acetate buffer pH4 was non-specifically (by NH2 groups) immobilized onto the biosensor. The sensors were then immersed into wells containing cell growth medium with specific VHHs (from about 1 μg of VHH in 1 ml of medium), where the complex was associated. The sensors were then immersed in a buffer solution, where the subsequent stage of dissociation of the complex took place. 1/10 of the volume of 10× working buffer was added to the test specimens in E. Coli growth medium containing anti-CD47 VHH fragments. The obtained curves were analyzed using OctetDataAnalysis (version 7.0) according to the standard procedure with 1:1 interaction model.

| Molecule | koff [s⁻¹] |
| --- | --- |
| B1 | 0.008 |
| B2 | 0.006 |
| B3 | 0.005 |
| B4 | 0.01 |
| B5 | 0.006 |
| B6 | 0.008 |

What follows are molecules tested against T1, human CD47-Fc (assay: competitive ELISA without VHH: uninhibited SIRP-Fc / CD47-Fc signal).

| Molecule | OD units, competitive screening to SIRP-Fc [OD units] |
| --- | --- |
| SIRP-Fc ligand (BIOCAD) (from UniProt P78324 31-370) (Fc fusion) | 0.481 |
